These results are taken from article PMC3352997.

The target of assay [1] is Factor Xa (activated factor X), human plasma (human). Nature of the assay: titration of protease activity.
The target in assay [2] is FXa-R240A (heparin-binding exosite mutant of factor Xa) (UniProt P00742). The assay is described as follows: enzyme inhibition kinetics.
Assay [3] deals with Factor XIa (activated factor XI), human plasma (human). Nature of the assay: titration of protease activity.
In assay [4] the target is Factor Xa (activated factor X), human plasma (human). The assay is described as follows: titration of protease activity. This is another data set of the same source.
Assay [5] has as its target Factor XIa (activated factor XI), human plasma (human). Nature of the assay: enzyme inhibition kinetics.
Assay [6] has as its target Factor Xa (activated factor X), human plasma (human). The assay is described as follows: enzyme inhibition kinetics.
Assay [7] deals with Factor XIa (activated factor XI), human plasma (human). The assay is described as follows: titration of protease activity. The source holds these as a separate data set.
Assay [8] concerns the target Factor Xa (activated factor X), human plasma (human). Nature of the assay: enzyme inhibition kinetics. The source holds these as a separate data set.
Assay [9] deals with Factor XIa (activated factor XI), human plasma (human). Nature of the assay: enzyme inhibition kinetics. This is another data set of the same source.
In assay [10] the target is Factor Xa (activated factor X), human plasma (human). Nature of the assay: enzyme inhibition kinetics. The source holds these as a separate data set.
The target in assay [11] is FXa-R240A (heparin-binding exosite mutant of factor Xa) (UniProt P00742). The assay is described as follows: enzyme inhibition kinetics. This is another data set of the same source.
Assay [12] deals with Factor Xa (activated factor X), human plasma (human). The assay is described as follows: titration of protease activity. The source holds these as a separate data set.

Where a chain is given by its changes, count along the chain named. Like-named read-outs stand apart in the source and are kept apart here.

Sequence of Factor Xa (activated factor X), human plasma (human) (P00742 whole entry): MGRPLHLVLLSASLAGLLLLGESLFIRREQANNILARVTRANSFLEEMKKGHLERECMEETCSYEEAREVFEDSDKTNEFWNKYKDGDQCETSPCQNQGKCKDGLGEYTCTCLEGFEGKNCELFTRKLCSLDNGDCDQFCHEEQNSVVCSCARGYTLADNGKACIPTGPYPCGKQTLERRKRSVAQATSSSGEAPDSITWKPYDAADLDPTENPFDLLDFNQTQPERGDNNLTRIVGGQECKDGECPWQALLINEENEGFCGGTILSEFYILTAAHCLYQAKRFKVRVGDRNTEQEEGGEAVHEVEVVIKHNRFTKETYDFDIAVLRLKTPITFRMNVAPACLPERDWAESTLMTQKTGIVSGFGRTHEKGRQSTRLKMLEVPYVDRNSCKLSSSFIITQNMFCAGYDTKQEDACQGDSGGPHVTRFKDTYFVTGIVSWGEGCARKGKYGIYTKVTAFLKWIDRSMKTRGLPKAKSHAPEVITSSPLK

B1: Protein Z-dependent protease inhibitor, wild type (natural protein)
chain: LAPSPQSPETPAPQNQTSRVVQAPKEEEEDEQEASEEKASEEEKAWLMASRQQLAKETSNFGFSLLRKISMRHDGNMVFSPFGMSLAMTGLMLGATGPTETQIKRGLHLQALKPTKPGLLPSLFKGLRETLSRNLELGLTQGSFAFIHKDFDVKETFFNLSKRYFDTECVPMNFRNASQAKRLMNHYINKETRGKIPKLFDEINPETKLILVDYILFKGKWLTPFDPVFTEVDTFHLDKYKTIKVPMMYGAGKFASTFDKNFRCHVLKLPYQGNATMLVVLMEKMGDHLALEDYLTTDLVETWLRNMKTRNMEVFFPKFKLDQKYEMHELLRQMGIRRIFSPFADLSELSATGRNLQVSRVLQRTVIEVDERGTEAVAGILSEITAYSMPPVIKVDRPFHFMIYEETSGMLLFLGRVVNPTLL
As for B1, the SI (stoichiometry of inhibition) stood at 2.8 mol I/mol E in [1]; 10.2 mol I/mol E in assay [3]; 3.8 mol I/mol E in assay [4]; 4.3 mol I/mol E in assay [7]; 4.1 mol I/mol E in assay [12]. The k2 (second-order association rate constant of inhibition) was found to be 30000 M⁻¹ s⁻¹ in assay [2] and 2800 M⁻¹ s⁻¹ in assay [11]. Besides, the k2(app) (apparent second-order association rate constant of inhibition) in [5] was determined as 420000 M⁻¹ s⁻¹; in assay [6], 180000 M⁻¹ s⁻¹; in assay [8], 2.5e+06 M⁻¹ s⁻¹; in assay [9], 58000 M⁻¹ s⁻¹; in assay [10], 3400 M⁻¹ s⁻¹.

B2: ZPI single mutant with Lys-125 substituted with Ala (natural protein)
chain: B1 chain with K104A
Regarding B2, the fold decrease in reactivity in the presence of heparin in [9] and in [10] was less than 2 fold in each case.

B3: ZPI single mutant with Arg-128 substituted with Ala (natural protein)
chain: B1 chain with R128A
On to B3, for which the fold decrease in reactivity in the presence of heparin in assay [9] and in assay [10] was less than 2 fold throughout.

B4: ZPI-3A (ZPI with Lys-113, Lys-116 and Lys-125 substituted with Ala) (natural protein)
chain: B1 chain with K113A, K116A, K125A
Turning to B4, the SI (stoichiometry of inhibition) in assay [1] was 3.3 mol I/mol E; in assay [3], 13.3 mol I/mol E; in assay [4], 3.8 mol I/mol E; in assay [7], 5.2 mol I/mol E; in [12], 4.5 mol I/mol E. The k2(app) (apparent second-order association rate constant of inhibition) in [5] is 260000 M⁻¹ s⁻¹; in [6], 95000 M⁻¹ s⁻¹; in assay [8], 2e+06 M⁻¹ s⁻¹; in assay [9], 41000 M⁻¹ s⁻¹; in assay [10], 2600 M⁻¹ s⁻¹. Also, the k2(app) x SI (second-order rate constant corrected for SI) was determined as 1.4e+06 M⁻¹ s⁻¹ in [5]; 360000 M⁻¹ s⁻¹ in [6]; 6.6e+06 M⁻¹ s⁻¹ in assay [8]; 540000 M⁻¹ s⁻¹ in assay [9]; 12000 M⁻¹ s⁻¹ in [10].

B5: ZPI single mutant with Lys-116 substituted with Ala (natural protein)
chain: B1 chain with K116A
On to B5, for which the fold decrease in reactivity in the presence of heparin in assay [9] and in assay [10] was less than 2 fold throughout.

B6: ZPI single mutant with Lys-113 substituted with Ala (natural protein)
chain: B1 chain with K113A
For B6, the fold decrease in reactivity in the presence of heparin in assay [9] and in assay [10] was less than 2 fold in each case.

B7: ZPI-des-NT (ZPI with the first 52 residues of the acidic N-terminal tail deleted) (domain or fragment)
chain: QLAKETSNFGFSLLRKISMRHDGNMVFSPFGMSLAMTGLMLGATGPTETQIKRGLHLQALKPTKPGLLPSLFKGLRETLSRNLELGLTQGSFAFIHKDFDVKETFFNLSKRYFDTECVPMNFRNASQAKRLMNHYINKETRGKIPKLFDEINPETKLILVDYILFKGKWLTPFDPVFTEVDTFHLDKYKTIKVPMMYGAGKFASTFDKNFRCHVLKLPYQGNATMLVVLMEKMGDHLALEDYLTTDLVETWLRNMKTRNMEVFFPKFKLDQKYEMHELLRQMGIRRIFSPFADLSELSATGRNLQVSRVLQRTVIEVDERGTEAVAGILSEITAYSMPPVIKVDRPFHFMIYEETSGMLLFLGRVVNPTLL
B7: the SI (stoichiometry of inhibition) in assay [1] stood at 4.5 mol I/mol E; in assay [3], 15.6 mol I/mol E; in assay [4], 7.3 mol I/mol E; in [7], 8.5 mol I/mol E; in [12], 7.4 mol I/mol E. Besides, the k2(app) (apparent second-order association rate constant of inhibition) in assay [5] was 110000 M⁻¹ s⁻¹; in assay [8], 1.8e+06 M⁻¹ s⁻¹; in [9] it was 29000 M⁻¹ s⁻¹; in assay [10], 2100 M⁻¹ s⁻¹. Also, the k2(app) x SI (second-order rate constant corrected for SI) in assay [5] is 940000 M⁻¹ s⁻¹; in assay [8] it was 8.1e+06 M⁻¹ s⁻¹; in [9], 450000 M⁻¹ s⁻¹; in assay [10], 15000 M⁻¹ s⁻¹.
